Target: Cetux-probe (cetuximab conjugated with the C-probe)
Test: cell-based or functional assay

| fold increase of Cetux-probe fluorescence on enzyme treatment (37°C, 1 hour) | Substance |
| --- | --- |
| 24 fold | cathepsin B (enzyme) |
| 13.5 fold | papain (from UniProt P00784 134-345) (enzyme) |

Reference: EP4782837A1
